Several values for one entry are separate records, joined by “and”; a condition that tells them apart may be missing. Equal values may be shown once.
Tests used:
[1] = molecular target: ATP synthase (complex V), human fibroblasts (human (endogenous in fibroblasts)) (UniProt P25705); test: native gel or EMSA; clear native electrophoresis (CNE), 6-15% gradient gels, of digitonin-solubilised (4 g/g protein) mitochondria of human fibroblasts (control and patients) and ρ0 cells; western blot, in-gel activity staining, 2D CNE/SDS PAGE
[2] = molecular target: CV lacking the mtDNA-coded subunits (ρ0 cells) (human (endogenous in 143B TK- ρ0 cells)) (UniProt P25705); test: as above
[3] = molecular target: respiratory chain complex IV, human fibroblasts (human (endogenous in fibroblasts)) (UniProt P13073); test: as above
[4] = molecular target: respiratory chain complex IV, rat heart (rat (endogenous in rat heart mitochondria)) (UniProt P10888); test: native gel or EMSA; clear native electrophoresis (CNE), 6-15% gradient gels, of digitonin-solubilised (4 g/g protein) rat heart mitochondria; western blot, in-gel activity staining, 2D CNE/SDS PAGE and CNE/CNECBG

## ATP synthase (complex V), human fibroblasts (from UniProt P25705 44-553; P06576 48-529; P36542 26-298; P00846 1-226; P03928 1-68)
[1]
  stoichiometry N: 2 and 4

## CV lacking the mtDNA-coded subunits (ρ0 cells) (from UniProt P25705 44-553; P06576 48-529; P36542 26-298) (complex)
[2]
  stoichiometry N: 2 and 4

## respiratory chain complex IV, human fibroblasts (from UniProt P13073 23-169; P00395 1-513)
[3]
  stoichiometry N: 2

## respiratory chain complex IV, rat heart (from UniProt P10888 23-169; P05503 1-514)
[4]
  stoichiometry N: 2
